The target of assay [1] is AuraA, dimethylallyl tryptophan synthase (DMATS) family prenyltransferase (Penicillium solitum HDN11-131).
Assay [2] has the same target. In words: cryo-EM structure.

Where two headings read alike, the source gives them in different places.

Consider “AuraA, dimethylallyl tryptophan synthase (DMATS) family prenyltransferase (enzyme)”, for which the stoichiometry N in assay [1] and in assay [2] was 4 throughout.

One may read the stoichiometry N as a count of units in the complex or per binding partner.

The values are drawn from paper PMC11696170.
